Experimental data as given in publication PMC11102521.

Target: Staphylococcal enterotoxin A (SEA) (UniProt P0A0L2 25-257)
Test: […], Tris-HCl pH 7.4, 2.7 mM KCl, 1 mM CaCl2, 0.5 mM MgCl2; 30 min at 25 °C in 100 µL, […]
Conditions: protein: commercial; tags: biotinylated, immobilized on streptavidin magnetic beads

Sequence of Staphylococcal enterotoxin A (SEA) (P0A0L2 25-257): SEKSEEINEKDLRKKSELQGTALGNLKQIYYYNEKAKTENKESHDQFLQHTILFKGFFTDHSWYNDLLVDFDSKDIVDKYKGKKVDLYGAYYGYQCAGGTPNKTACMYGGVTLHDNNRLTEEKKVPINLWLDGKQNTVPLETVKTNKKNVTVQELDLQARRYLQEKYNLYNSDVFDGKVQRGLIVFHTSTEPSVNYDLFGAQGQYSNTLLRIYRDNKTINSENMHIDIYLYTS

B1: Apt1 (Aptamer_301794) (ssDNA)
DNA: AGGCCAACTGGATAGCGAATAGAACTCTGCCGTGGGGTGCAGTTTTAATTGTACGTTCTCGAATTCAGCACTACCTTTTGGCAAACGCTAATAAGGG
binding result: binds

B2: Apt5 (Aptamer_253457) (ssDNA)
DNA: AGGCCAACTGGATAGCGAATTTGCAATCAGCGTGGGTGGGTTTCTTTTGCGTGGTGTGTCGAATTCAGCACTACCTTTTGGCAAACGCTAATAAGGG
Kd: 13.4 ± 1.86 nM

B3: Apt2 (Aptamer_207452) (ssDNA)
DNA: AGGCCAACTGGATAGCGAATGTGGCAGTCGGTTTTGACTTGCGCTCTTGCATCATTATTCGAATTCAGCACTACCTTTTGGCAAACGCTAATAAGGG
binding result: binds

B4: Apt4 (Aptamer_423283) (ssDNA)
DNA: AGGCCAACTGGATAGCGAATGTTAGTGGACTCGGTTTGGACGTTCTCTCTTCTCGAATGCGAATTCAGCACTACCTTTTGGCAAACGCTAATAAGGG
binding result: binds
